Assay results published in US20100075385A1 (DONALD DANFORTH PLANT SCIENCE CENTER, published 2010).

B1: Papaver somniferum (R,S)-reticuline 7-O-methyltransferase (PSOMT1), recombinant, His-tagged subunit (enzyme)
chain: MDTAEERLKGQAEIWEHMFAFVDSMALKCAVELGIPDIINSHGRPVTISEIVDSLKTNTPSSSPNIDYLTRIMRLLVHKRLFTSELHQESNQLLYNLTRSSKWLLKDSKFNLSPLVLWETNPILLKPWQYLGKCAQEKSSPFERAHGCEIWDLALADPKFNNFLNGAMQCSTTTIINEMLLEYKDGFSGIAGSLVDVGGGTGSIIAEIVKAHPHIQGINFDLPHVVATAAEFPGVKHVGGDMFVDIPEADAVIMKWILHDWSDEDCTIILKNCYRAIRKKKNGKVIIVDCVLRPDGNDLFDKMGLIFDVLMMAHTTAGKERTEAEWKILLNNAGFPRYNVIRTPAFPCIIEAFPE
notes: Full-length open reading frame expressed in Sf9 cells with an N-terminal His tag and purified on cobalt resin; GenBank AY268893 is printed for it; also called Pso7OMT; Ps7OMT; not shown: six histidine residues elongating the amino terminus (pFastBac HTa vector)
B2: Papaver somniferum (R,S)-norcoclaurine 6-O-methyltransferase (PSOMT2), recombinant, His-tagged subunit (enzyme)
chain: METVSKIDQQNQAKIWKQIYGFAESLVLKCAVQLEIAETLHNNVKPMSLSELASKLPVAQPVNEDRLFRIMRYLVHMELFKIDATTQKYSLAPPAKYLLRGWEKSMVDSILCINDKDFLAPWHHLGDGLTGNCDAFEKALGKSIWVYMSVNPEKNQLFNAAMACDTRLVTSALANECKSIFSDGISTLVDVGGGTGTAVKAISKAFPDIKCTIYDLPHVIADSPEIPNITKISGDMFKSIPSADAIFMKCILHDWNDDECIQILKRCKEALPKGGKVIIVDVVIDMDSTHPYAKIRLTLDLDMMLNTGGKERTKEEWKTLFDAAGFASHKVTQISAVQSVIEAYPY
notes: Full-length open reading frame expressed in Sf9 cells with an N-terminal His tag and purified on cobalt resin; GenBank AY268894 is printed for it; also called Pso6OMT; Ps6OMT; not shown: six histidine residues elongating the amino terminus (pFastBac HTa vector)

Biological target: the molecule itself
Experiment: gel filtration on a calibrated Sephacryl 200 column; self-association of the subunit (43 kDa by SDS-PAGE) into a homodimer
Excerpt: Purification and Functional Characterization of Recombinant Enzymes—The PSOMT1 and PSOMT2 cDNAs were each constructed to express the recombinant proteins with six histidine residues elongating the amino terminus. The proteins were then purified from S. frugiperda Sf9 cell culture medium in one step by cobalt affinity chromatography to yield electrophoretically homogeneous proteins. PSOMT1 and PSOMT2 each have relative molecular masses of 43 kDa as determined by SDS-PAGE. This compares with the calculated molecular masses of 39,841 and 38,510 based on the translation of the nucleotide sequences. The native relative molecular masses were determined by gel filtration on a calibrated Sephacryl 200 column (Pharmacia). PSOMT1 and PSOMT2 are each homodimers with an Mr of 85 and 80 kDa, respectively. This is consistent with that observed for norcoclaurine 6-O-methyltransferases of (S)-reticuline biosynthesis in T. tuberosum (4).

Protein	binding result
B1	binds
B2	binds
